# According to the DeepSol protein solubility set:
# Assay: soluble on expression in E. coli; label from the status in PepcDB or PDB records
row,Sequence,soluble on expression in E. coli
1,MSLAACSGGGNSSQGSGGSKFAFWDMPWGSPGPDYLAAGKEISAAFSGGSATYQSISWDGWLQTFSSAIAAGTGPAISTGGAFQSLQYYVQDAVHPADGVIAKLRSKGQLDDFLPGTLDVFKYKGAYTALPWNVDSRLLWYRKSLLEKAGVEEPRSWDDLYRVGVALKKNDVYGMVASGGAGGNAYQTFLSFVFNNGGGLFDKDGEPQCVTDANVEAVEFLMKLAKDGIMDPGSVSYTVANLNDQFSSGAAALSILPPDIANSFEDPRLKADITLGSPLTSPNGTKGTMAYTSDLILYTGDWDTDVVEDFAVYYLDAMSAYWKKGVLNKVPVRQSILDLPEVQAQPNLVKATKEWLPVGKSLTQLAGEPFPEINAVDGGQAITQWAQQVIQAKSSGEQTLRTLQDGIEKVMEGHHHITTDPNSSSVDKLAAALEHHHHHH,soluble
2,MTSQRCRRRYFMMIRERIEEKLRAAFQPVFLEVVDESYRHNVPAGSESHFKVVLVSDRFTGERFLNRHRMIYSTLAEELSTTVHALALHTYTIKEWEGLQDTVFASPPCRGAGSIA,soluble
3,IDLSNALPGSRRGFLKGAAVVGLTIGFQWSGARRALAAALPDAGFAPNAFLRIAPDDSVTVIAKHVEMGQGAYTGIATIVAEELDADWSKVRVESAPADAKRYANLAFGTMQGTGGSSAMANSWMQLREAGAKARAMLVEAAARQWQVPAAELRTRDGFVEHPTSQRKASYGSLAAAAAELPVPEKVQLKDPKDFRLIGHQAPRVDVPGKTDGSAQFTLDVSLPGMLVALLQRPPLFGATVKSFDATATRAIPGVVEVVQVPHGVAVVAKGFWAAKQGRDALKVEWDESKAEKRGSEALMAEYRKLAEQPGKPARRDGDAAKAVAGATRRIAASYEFPFLAHAPMEPLDAVVRLTADSCEIWAGDQFQTVDQGNAARTAGLKPEQVKINTLYAGGSFGRRANAWSDYIVEAVSIAKALGANGVPVKLQWTREDDIHGGFYRPMYYHRLEAGLDADGKLVGWQHRIVGQSILEGTPFAAVMVKDGIDATSVEGAANLPYAVPNVSVELSTTQVGVPVLWWRVVGSSHTVYAVEAFIDEAAQAAGKDPYLFRRDLLAEQPRLRGVLELAAEKAGWDPSRPLPAGRGRGIAVTEAFKTFVAQVVEVSVDKDGKLKVERVVCAVDCGIPINPDVIAAQMEGGIGFGLGAILHSAITLKDGKVEQNNFDGYQVLRIAEMPKVEVHIVPSGEAPTGVGEPGVAPIGPALANAIFAATGQRLYNLPFPTSFA,not soluble
4,MSHGDQLEQYQDQYFDCIKKYDMPAALEVLELIAESCIELNDDDPLIEACERGASYLKCCLKYENLVNLHASQKINDHTLFFLNLEVRRRSTYQCFATTRSFLTPHRKRQLAKTMNAEPRIFAFGLNANNNLGVDTVQSALVDVPTEIYVPPVYEMKMSNFHSVFWCHDGKFFGCGETKNFMISKPDSELPRIVKFPMELDIQIWRNEMIVGIKALENGTLFQTDRRLYFVGDYQKSKAYLKTFHDEEFDMVTQLPYATPNFWITQSRPVSSISAYKLDDKKNVTILRVKSVSYWIQVYPDYWTELNPGYIKKRPVVYLLDDVEVKNIRIETVGCNIIYVVHELTLYFGKMTMTMVENSDGDENNLDNYILFVELHEYRTRSPYLCTGVATNKAQGVLMKCGDFPCVGFDYLEIAENRFRGNVQKYMFETVEKFMESYDVFENDEVSMDYLLSETEKAFNSGVMEQEIKLDWLGRTEKKYRYSNFYSFLGYVSQPRLLTGPPKCFTTDIDTLLTYKDPKLVARHRMKQLFEEFERVNYPGTDVWKPTGFLKSHDIPEEDNLSEGRYRSAAMKWCVNEFMEQFNVYRENPVFNPDNLVYKEILKYLINVIWYALDQWIIITEKTENDRVAPLLREIEHKVPDDEILFQTVYPEKILENRLREGSLKMEDLPEPLNIRVTFLLRHRDPKLKPTRFNLNTCRTFFNFLYPALEDFIDENNVLDLNKLYPDDVAIHRLIAQTYFVGHGLTDLEGSEKYDRSVYDSKGVRLEPMVRFMRKGREHFRGFLRRVPSTSAPGDGPIVFPTADHQAFFKMQRVLYSRLPLTEKLPIDIEDDLYSAAIVGLQDKRVLEVLTMDEKLRILEWYEKAKMPEALMDLLKQCIIESTSKNYYHIRYLFSQYPIMTQRFIAQYRPGIILWHRSPIPNPQIHHVRIITEMWPKNDFERTTRIPRKKFIKNGIVEDSKFYMIGSYLRRDAYKDIHYPAQKTTKLTELFNIDFPVNGPKKSKNQMMLITFPSREIVEEEEPPQEAEQSPSPDPEKIAKRREELRKKIAEKLAASKKKKKR,not soluble
5,MSLDHFQIDHIAIAVPSLNTSLPLFEQALQATASHEERLPHHHINAVFINGRGVGYELIEPHPSNVSMQRFLAKQNNRPAFHHIAFSVANIETAIGMLKEKHVRLTSELPLIGSFGRKVAFIHPSSTGGLLVELCEGKTEGHHHHHH,soluble
6,AGHILLLEEEDEAATVVCEMLTAAGFKVIWLVDGSTALDQLDLLQPIVILMAWPPPDQSCLLLLQHLREHQADPHPPLVLFLGEPPVDPLLTAQASAILSKPLDPQLLLTTLQGLCPPN,soluble
7,MVRLPPPTPPRKPNICGTSGNSNGINENIDTSTFSVSAAKALFESAKRPEVRNAAIAAAKNPFVRQTAKNVAQDEKARGAVLNAVKDPSGGNKISAAFAVADANRKSDSVPPPPPHRGGTSPGKLSGSHSAIRSQLENMHIGGSVMSSNSSTATPSYQSNSTSSYSSSAPVAPPPVPRHTQSIPSYSAPAISTPYGIAKFDYAPTQSDEMGLRIGDTVLISKKVDAEWFYGENQNQRTFGIVPSSYLDIKIPLKEAFTALPPRPAAPSGSSSGTYATAIYDYNSNEAGDLNFAVGSQIMVTARVNEEWLEGECFGRSGIFPSQFVDCPNLYQVPMKQSAPSSAPSYSHPITNNSGPKQTVTVSYDYDSGVASDLRLFEGDVITALEDIDAQWLLAECRGQQGMVPKTFLGPPYGSPKKAPSKGIAEIACAFSPKKAVATGDYHSEDPKHLYVTRGDHLLIVEDVDDYYYKGKLEAFKTLPAGILPKNIVKLEN,not soluble
8,MDKKVYNTYVSILKNELVVALGCTEPIAIAYAGAKVREVLEAMPDRCEINCSGNIVKNVKGVTVPNSGGMKGIDTAATLGIVGGNVKRILAVLEDITPEQIETTQKLVKEGFCSCGLIEGVENLYIIITAYAGEESATVEIRDYHSNITKIVKNGKIIFSTDDEQSEQSSGPDKSLLNVKDILEFADCVDLSDISEVISRQIECNTAISQEGLNNPWGAQVGRTLLDTFGSDVAIRAKAAAAAGSDARMSGCPMPVVINSGSGNQGMTVSLPIIEYAKEYNISDEGLYRALVAGNLISLHQKKYIGSLSAYCGAVSAACGSGVGIAYMLGASYDEICGIITDTIATIGGMVCDGAKPSCAAKIASAVDCALTAFHLSKNKRVFQPGEGLVKETVEDTIQSIGRMGREGMKATDIEILNIMLEN,not soluble
9,MNFKESRAIYLQIADRICDDILLGQYEEEGRIPSVREYASIVEVNANTVMRSYEYLQSQEVIYNKRGIGFFVASGAKMLIHSLRKEQFLKEEVGSFFRQLYTLGISIKEIEKMYYEFIQRQNQ,soluble
10,MDNQKRPFTTRFDHYNYNVLNLERSLAFYDRAFGFREVKRKEAADGSFILVYLGDVYGHFLLELTWLRDRKEPYNLGENEVHLCVRTTGDYDAVREYHRAMGCICYENEQMGLYFVNDPDGYWIEVLPENRD,not soluble
11,MNVVFAVKQYISKMIEDSGPGMKVLLMDKETTGIVSMVYTQSEILQKEVYLFERIDSQNREIMKHLKAICFLRPTKENVDYIIQELRRPKYTIYFIYFSNVISKSDVKSLAEADEQEVVAEVQEFYGDYIAVNPHLFSLNILGCCQGRNWDPAQLSRTTQGLTALLLSLKKCPMIRYQLSSEAAKRLAECVKQVITKEYELFEFRRTEVPPLLLILDRCDDAITPLLNQWTYQAMVHELLGINNNRIDLSRVPGISKDLREVVLSAENDEFYANNMYLNFAEIGSNIKNLMEDFQKKKPKEQQKLESIADMKAFVENYPQFKKMSGTVSKHVTVVGELSRLVSERNLLEVSEVEQELACQNDHSSALQNIKRLLQNPKVTEFDAARLVMLYALHYERHSSNSLPGLMMDLRNKGVSEKYRKLVSAVVEYGGKRVRGSDLFSPKDAVAITKQFLKGLKGVENVYTQHQPFLHETLDHLIKGRLKENLYPYLGPSTLRDRPQDIIVFVIGGATYEEALTVYNLNRTTPGVRIVLGGTTVHNTKSFLEEVLASGLHSRSKESSQVTSRSASRR,not soluble
12,MGREALGKCPVCNNETTITRITCEKCNTTIEGRFDLCKFCRLTPEQKLFVDVFIKCRGNIKEVEKELGVSYPTVKNKLEDVANALGHKSEEAPVEETNRKEILDKLYEGEISVDEALELLKG,not soluble
13,MGSDKIHHHHHHMGVEHMRGFSNEIILKRTLTLSDFTLRYHKRGITALQVIKAPSVSNVPVLLSGDNYGYFVMWDLVTKRPITHIEIEGNSHIIAFWWVETTNVLYILSKDSMLRIFELDSSTQLSIDLVRKLSQANKTDHLQWTKIYEMPINTLNFANFIIEAEVKPTKDNKSYRLVCCHTDDSETIDIYQIIEDSTFKLKRPFNNINFPRFLKQQNFLGISKDSKFGIIMRFAKLNDVIFLGYENGFVVGFKITFDEGLQRDIAELVHVSNDHYPNPILDMCVSGDELYSCSTDDFITKYKIPVNLQLETKYLRDDALLIKCPSSLRVSEPSKVHLPLKNIGHIDKVKDDYLVVSSWSGMTIVYNMRTSEVEQTFVKSKNNLVVSDSSMGDLTNGSGSNTESSSKSHNYKVGAMTCLESFDVQSDGLRLGQLRRIKALAKCNWCLIGYEDGTIKLNKI,not soluble
14,MKISVLVPTLGTREKEIRRLLETLEKQSYKDFEIIFVTQDNHEIVKDIIYKYSNLDIKQIEMSVKGLSRARNRGLEQASGEIVVLSDDDCWYPANAFEIVVNAFKKRQCAKIVLSQIFDPEKNIPYKNYTSDEEYVRNKLQLMSKSSIEVAFKKDLVMNKKFDERLGLGSEFVCGEEVDFLLSNYEKNAIFYIPEVTVYHKKKENGSSNKQIIAKGAIYGKNFNIFICVLVLLRDLMLKKENNFKYFFEGYNEYFKRTN,not soluble
15,MDQNVPISKKLWNIVRFLLYMIRKGVSKNKLIADFNATLKRGKNLMFHQRRRVHAGSTASAALNATSATASSRQEYEFSCSNTPNYSFPFSNMAFMRKKSHNNLFTCGQTPQTLDDDVAAARAVLELLNGVGEKGNVTPADLTVALSPYFPGFGQTPLVRPLRVTDSPFPLTPENGDVANGHVDKAADDFIKKFYKNLNQQKKMIEFS,not soluble
16,KLGTSTGEFTGSNQTTQPTAIMELINKVQKDAANAQLSIAAPLSSSAYIPKGDVTIKDIMSVYVYENYLYGIKMTGKQLKDWLEYSVRYYKQVSSPNDSIAKDPALNVPDYNLDQLYGATYDIDLTQPACTIDPSTGRIASGDRIKNLKINGVPIKDSDVFTVAINDYRYNGGGGFMKAAGISNTDPSIVTYSSAKALGDDGQVRSLMQSYIKNNQTISPENSNNWKLYTT,not soluble
17,MIEDYALIGDMQIAALVCQDGTVDWLCLPRFDSHAVFAGLLGTEEHGFWRLGPAHASDAEPPRASRRTYRGDSLILESEWDTPRGTVRVTDFMPPRDGAPQLIRIVEGVTGRVPMRSALEHHHHHH,soluble
18,MTDKPTYEQTLRGNAIRAISACDLDEKVRLARETASRWFARALSVRSPLDPPLPERPGRPEKPELVPPRMLKKRSLNTEHGRIALMHALAHIELNAIDLALDIVARFAVKPIPRSFFDGWMKVADDEARHFTLLRNRLKSLGADYGDMPAHDGLWQSAHQTRNDLEARLAVVPLILEARGLDVTPSLLEKMIETGDHETAAILNIIYNDEKTHVAVGAKWFRFFCARNRIDPAARFRELVRANFRGELKPPFNELARAEAGLTPSFYRSLSPVSILEHHHHHH,not soluble
19,MGSDKIHHHHHHMNYVKSKQRVADHGEVFTPAWLVEAMIDLVKDETERIDARFLEPACGSGNFLVPILQRKLAAVERKFGKSNFEKQHYALFAVMCTYGIELLADNIAECRANMLEIFADYLTLDESDELYRAAIYVLSQNLVHGDALKMRTSDGQPIAFAEWGYLGKGKFQRRDFRLDSLAMSSTFSVEGSLFAHLGKHEIFTPTRTYPPMTVSELAARAAEANL,not soluble
